What was measured:
[1] = target: recombinant ADAM17 (A Disintegrin and Metalloproteinase 17) (UniProt P78536 215-671); experiment: FRET
[2] = target: T1, recombinant ADAM10 (A Disintegrin and Metalloproteinase 10) (UniProt O14672 20-748); experiment: FRET
T1 chain: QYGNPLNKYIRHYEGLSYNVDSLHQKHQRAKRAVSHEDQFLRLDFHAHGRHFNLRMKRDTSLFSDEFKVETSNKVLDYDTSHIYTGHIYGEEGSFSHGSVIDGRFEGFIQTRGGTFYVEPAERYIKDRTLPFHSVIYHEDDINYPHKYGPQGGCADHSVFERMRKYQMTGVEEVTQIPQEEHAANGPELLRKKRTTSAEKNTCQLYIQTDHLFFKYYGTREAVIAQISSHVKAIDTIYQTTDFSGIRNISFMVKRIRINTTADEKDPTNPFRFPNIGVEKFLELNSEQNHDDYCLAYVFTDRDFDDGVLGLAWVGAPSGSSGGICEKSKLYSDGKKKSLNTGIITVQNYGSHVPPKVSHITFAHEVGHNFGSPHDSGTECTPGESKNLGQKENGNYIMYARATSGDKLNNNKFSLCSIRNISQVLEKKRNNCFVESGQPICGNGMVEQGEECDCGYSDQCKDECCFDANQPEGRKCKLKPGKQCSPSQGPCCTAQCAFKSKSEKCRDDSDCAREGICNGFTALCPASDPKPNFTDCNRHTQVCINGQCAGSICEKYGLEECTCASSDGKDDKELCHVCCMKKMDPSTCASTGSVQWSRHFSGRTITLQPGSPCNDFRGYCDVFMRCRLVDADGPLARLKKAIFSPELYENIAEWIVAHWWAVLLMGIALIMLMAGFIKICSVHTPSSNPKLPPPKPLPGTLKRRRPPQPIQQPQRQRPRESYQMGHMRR

Chain of recombinant ADAM17 (A Disintegrin and Metalloproteinase 17) (P78536 215-671): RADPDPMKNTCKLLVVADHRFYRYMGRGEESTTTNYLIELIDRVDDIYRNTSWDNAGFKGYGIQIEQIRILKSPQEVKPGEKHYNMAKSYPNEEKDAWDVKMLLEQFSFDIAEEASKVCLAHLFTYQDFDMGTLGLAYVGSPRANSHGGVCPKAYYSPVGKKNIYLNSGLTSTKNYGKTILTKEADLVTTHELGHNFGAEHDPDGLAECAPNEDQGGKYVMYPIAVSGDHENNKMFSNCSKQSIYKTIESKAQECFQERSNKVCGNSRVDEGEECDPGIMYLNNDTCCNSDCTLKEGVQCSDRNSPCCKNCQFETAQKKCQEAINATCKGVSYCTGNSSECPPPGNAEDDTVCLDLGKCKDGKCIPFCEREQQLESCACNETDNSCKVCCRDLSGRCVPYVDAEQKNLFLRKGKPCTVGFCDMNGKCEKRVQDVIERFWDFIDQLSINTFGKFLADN

B1: recombinant His-tagged human ADAM12 prodomain (amino acids 29-206) (domain or fragment)
chain: RGVSLWNQGRADEVVSASVGSGDLWIPVKSFDSKNHPEVLNIRLQRESKELIINLERNEGLIASSFTETHYLQDGTDVSLARNYTVILGHCYYHGHVRGYSDSAVSLSTCSGLRGLIVFENESYVLEPMKSATNRYKLFPAKKLKSVRGSCGSHHNTPNLAAKNVFPPPSQTWARRHK
Question: With B1 as the binder, how does the Ki [1] read?
Answer: > 14 µM

Question: And the Ki [2]?
Answer: > 14 µM

Reference: article PMC4609913 (2015)
